Test results as given in patent publication US20190315854A1 (BEIJING VDJBIO, published 2019).
Like-named read-outs stand apart in the source and are kept apart here.

T1: sIL-6R (soluble IL-6 receptor; SBH Sciences) (human, UniProt P08887 20-365)
T1 construct: also called human IL-6R
T1 sequence: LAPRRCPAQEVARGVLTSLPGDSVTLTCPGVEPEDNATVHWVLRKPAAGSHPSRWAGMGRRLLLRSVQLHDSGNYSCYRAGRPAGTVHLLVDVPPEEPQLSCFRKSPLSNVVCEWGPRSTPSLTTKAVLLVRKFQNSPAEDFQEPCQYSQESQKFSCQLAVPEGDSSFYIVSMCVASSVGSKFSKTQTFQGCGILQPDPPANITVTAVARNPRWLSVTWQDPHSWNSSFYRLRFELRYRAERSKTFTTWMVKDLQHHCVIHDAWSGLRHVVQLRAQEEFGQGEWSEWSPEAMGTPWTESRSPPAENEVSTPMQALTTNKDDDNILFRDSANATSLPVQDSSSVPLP


Key:
Assay in all cases: SPR (BIAcore 3000), antibody on chip, sIL-6R analyte, 25 C
[1] = molecular target: T1, sIL-6R (soluble IL-6 receptor; SBH …)
Experimental: (§1) All SPR measurements were performed on a BIAcore 3000 instrument (GE Biosciences, Piscataway, N.J.). BIAcore Software-BIAcore 3000 Control Software V3.2 was used for the operation and control of the BIAcore 3000 instrument. BiaEvaluation Software V4.1 was used for the analysis of SPR data from the BIAcore 3000 instrument and data was plotted using Graph Pad Prism Software Version 5. […] The indicated antibodies were used as the ligand for the construction of the reference channel of the chip. […] Each sample was injected for 3 min at a flow rate of 30 μL/min to allow for binding to chip-bound antibody. Next, binding buffer without analyte was sent over the chip at the same flow rate to allow for dissociation of bound analyte. After 500s, remaining bound analyte was removed by injecting regeneration solution (1M Formic acid). Data was analyzed by using the Kinetics Wizard and the manual fitting programs that are both included with the BiaEvaluation Software V4.1.

[2] = molecular target: T1, sIL-6R (soluble IL-6 receptor; SBH …); remark: listed apart in the source
Experimental: as §1

[3] = molecular target: T1, sIL-6R (soluble IL-6 receptor; SBH …); remark: listed apart in the source
Experimental: as §1

Binder | Kd [1] | Relative Affinity [1] | koff [1] | kon [1] | Kd [2] | Relative Affinity [2] | koff [2] | kon [2] | Kd [3] | Relative Affinity [3] | koff [3] | kon [3]
11# (antibody, human IgG1, kappa, V domains shown, also called Sample # 11) VH: QVQLQESGPGLVRPSQTLSLTCTVSGYSITSDHAWSWVRQPPGRGLEWIGFISYSGITTYNPSLKSRVTMLRDTSKNQFSLRLSSVTAADTAVYYCARSLARATAMDYWGQGSLVTVSS VL: DIQMTQSPSSLSASVGDRVTITCRASQDISSYLNWYQQKPGKAPKLLIYYTSRLHSGVPSRFSGSGSGTDFTFTISSLQPEDIATYYCQQGNTLPYTFGQGTKVEIKR | 0.0863 nM | 15.5 fold vs 25 (Tocilizumab) | 2.38e-05 s⁻¹ | 275000 M⁻¹ s⁻¹ | 0.112 nM | 15.3 fold vs 25 (Tocilizumab) | 3.08e-05 s⁻¹ | 276000 M⁻¹ s⁻¹ | – | – | – | –
13# (antibody, human IgG1, kappa, V domains shown, also called Sample # 13) VH: QVQLQESGPGLVRPSQTLSLTCTVSGYSITSDHAWSWVRQPPGRGLEWIGFISYSGITTYNPSLKSRVTMLRDTSKNQFSLRLSSVTAADTAVYYCARCLARTTAMDYWGQGSLVTVSS VL: DIQMTQSPSSLSASVGDRVTITCRASQDISSYLNWYQQKPGKAPKLLIYYTSRLHSGVPSRFSGSGSGTDFTFTISSLQPEDIATYYCQQGNTLPYTFGQGTKVEIKR | 0.373 nM | 3.6 fold vs 25 (Tocilizumab) | 0.0001 s⁻¹ | 269000 M⁻¹ s⁻¹ | – | – | – | – | – | – | – | –
35# (antibody, human IgG1, kappa, V domains shown, also called Sample # 35) VH: QVQLQESGPGLVRPSQTLSLTCTVSGYSITSDHAWSWVRQPPGRGLEWIGYISYSGITTYNPSLKSRVTMLRDTSKNQFSLRLSSVTAADTAVYYCARSLARMTAMDYWGQGSLVTVSS VL: DIQMTQSPSSLSASVGDRVTITCRASQDISSYLNWYQQKPGKAPKLLIYYTSRLHSGVPSRFSGSGSGTDFTFTISSLQPEDIATYYCQQGNTLPYTFGQGTKVEIKR | – | – | – | – | 0.648 nM | 2.6 fold vs 25 (Tocilizumab) | 0.000146 s⁻¹ | 225000 M⁻¹ s⁻¹ | – | – | – | –
26# (antibody, human IgG1, kappa, V domains shown, also called Sample # 26) VH: QVQLQESGPGLVRPSQTLSLTCTVSGYSITSDHAWSWVRQPPGRGLEWIGYISYSGMTTYNPSLKSRVTMLRDTSKNQFSLRLSSVTAADTAVYYCARSLARTTAMDYWGQGSLVTVSS VL: DIQMTQSPSSLSASVGDRVTITCRASQDISSYLNWYQQKPGKAPKLLIYYTSRLHSGVPSRFSGSGSGTDFTFTISSLQPEDIATYYCQQGNTLPYTFGQGTKVEIKR | 0.42 nM | 3.2 fold vs 25 (Tocilizumab) | 0.000102 s⁻¹ | 243000 M⁻¹ s⁻¹ | – | – | – | – | – | – | – | –
7# (antibody, human IgG1, kappa, V domains shown, also called Sample # 7) VH: QVQLQESGPGLVRPSQTLSLTCTVSGYSITSDHAWSWVRQPPGRGLEWIGYISYSGITTYNPSLKSRVTMLRDTSKNQFSLRLSSVTAADTAVYYCARSLARTTAIDYWGQGSLVTVSS VL: DIQMTQSPSSLSASVGDRVTITCRASQDISSYLNWYQQKPGKAPKLLIYYTSRLHSGVPSRFSGSGSGTDFTFTISSLQPEDIATYYCQQGNTLPYTFGQGTKVEIKR | 0.763 nM | 1.8 fold vs 25 (Tocilizumab) | 0.000177 s⁻¹ | 232000 M⁻¹ s⁻¹ | – | – | – | – | – | – | – | –
45# (antibody, human IgG1, kappa, V domains shown, also called Sample # 45) VH: QVQLQESGPGLVRPSQTLSLTCTVSGYSITSDHAWSWVRQPPGRGLEWIGYISYSGITTYNPSLKSRVTMLRDTSKNQFSLRLSSVTAADTAVYYCARTLARTTAMDYWGQGSLVTVSS VL: DIQMTQSPSSLSASVGDRVTITCRASQDISSYLNWYQQKPGKAPKLLIYYTSRLHSGVPSRFSGSGSGTDFTFTISSLQPEDIATYYCQQGNTLPYTFGQGTKVEIKR | – | – | – | – | 0.605 nM | 2.8 fold vs 25 (Tocilizumab) | 0.000106 s⁻¹ | 175000 M⁻¹ s⁻¹ | – | – | – | –
246# (antibody, human IgG1, kappa, V domains shown) VH: QVQLQESGPGLVRPSQTLSLTCTVSGYSITSDHAWSWVRQPPGRGLEWIGYISYSGMITYNPSLKSRVTMLRDTSKNQFSLRLSSVTAADTAVYYCARTLARTTAIDFWGQGSLVTVSS VL: DIQMTQSPSSLSASVGDRVTITCRASQDISSYLNWYQQKPGKAPKLLIYYTSRLHSGVPSRFSGSGSGTDFTFTISSLQPEDIATYYCGQGNRLPYTFGQGTKVEIKR | – | – | – | – | – | – | – | – | 0.0789 nM | 40.1 fold vs 25 (Tocilizumab) | 9.86e-06 s⁻¹ | 125000 M⁻¹ s⁻¹
8# (antibody, human IgG1, kappa, V domains shown, also called Sample # 8) VH: QVQLQESGPGLVRPSQTLSLTCTVSGYSITSDHAWSWVRQPPGRGLEWIGFISYSGITTYNPSLKSRVTMLRDTSKNQFSLRLSSVTAADTAVYYCARSLARTTAMDFWGQGSLVTVSS VL: DIQMTQSPSSLSASVGDRVTITCRASQDISSYLNWYQQKPGKAPKLLIYYTSRLHSGVPSRFSGSGSGTDFTFTISSLQPEDIATYYCQQGNTLPYTFGQGTKVEIKR | 0.893 nM | 1.5 fold vs 25 (Tocilizumab) | 0.000241 s⁻¹ | 270000 M⁻¹ s⁻¹ | – | – | – | – | – | – | – | –

Results, then the binder that gave them:

Kd [1] | Relative Affinity [1] | koff [1] | kon [1] | Kd [2] | Relative Affinity [2] | koff [2] | kon [2] | Kd [3] | Relative Affinity [3] | koff [3] | kon [3] | Binder
0.273 nM | 4.9 fold vs 25 (Tocilizumab) | 5.8e-05 s⁻¹ | 213000 M⁻¹ s⁻¹ | 0.435 nM | 3.9 fold vs 25 (Tocilizumab) | 8.87e-05 s⁻¹ | 204000 M⁻¹ s⁻¹ | – | – | – | – | 3# (antibody, human IgG1, kappa, V domains shown, also called Sample # 3) VH: QVQLQESGPGLVRPSQTLSLTCTVSGYSITSDHAWSWVRQPPGRGLEWIGYISYSGITTYNPSLKSRVTMLRDTSKNQFSLRLSSVTAADTAVYYCARSLARATAMDYWGQGSLVTVSS VL: DIQMTQSPSSLSASVGDRVTITCRASQDISSYLNWYQQKPGKAPKLLIYYTSRLHSGVPSRFSGSGSGTDFTFTISSLQPEDIATYYCQQGNTLPYTFGQGTKVEIKR
0.249 nM | 5.4 fold vs 25 (Tocilizumab) | 5.94e-05 s⁻¹ | 239000 M⁻¹ s⁻¹ | 0.32 nM | 5.3 fold vs 25 (Tocilizumab) | 6.28e-05 s⁻¹ | 196000 M⁻¹ s⁻¹ | – | – | – | – | 9# (antibody, human IgG1, kappa, V domains shown, also called Sample # 9) VH: QVQLQESGPGLVRPSQTLSLTCTVSGYSITSDHAWSWVRQPPGRGLEWIGYISYSGIITYNASLKSRVTMLRDTSKNQFSLRLSSVTAADTAVYYCARCLARTTAMDYWGQGSLVTVSS VL: DIQMTQSPSSLSASVGDRVTITCRASQDISSYLNWYQQKPGKAPKLLIYYTSRLHSGVPSRFSGSGSGTDFTFTISSLQPEDIATYYCQQGNTLPYTFGQGTKVEIKR
0.288 nM | 4.6 fold vs 25 (Tocilizumab) | 8.32e-05 s⁻¹ | 289000 M⁻¹ s⁻¹ | 0.418 nM | 4.1 fold vs 25 (Tocilizumab) | 0.000126 s⁻¹ | 302000 M⁻¹ s⁻¹ | – | – | – | – | 12# (antibody, human IgG1, kappa, V domains shown, also called Sample # 12) VH: QVQLQESGPGLVRPSQTLSLTCTVSGYSITSDHAWSWVRQPPGRGLEWIGFISYSGITTYNPSLKSRVTMLRDTSKNQFSLRLSSVTAADTAVYYCARCLARATAMDYWGQGSLVTVSS VL: DIQMTQSPSSLSASVGDRVTITCRASQDISSYLNWYQQKPGKAPKLLIYYTSRLHSGVPSRFSGSGSGTDFTFTISSLQPEDIATYYCQQGNTLPYTFGQGTKVEIKR
0.882 nM | 1.5 fold vs 25 (Tocilizumab) | 0.000234 s⁻¹ | 266000 M⁻¹ s⁻¹ | – | – | – | – | – | – | – | – | 5# (antibody, human IgG1, kappa, V domains shown, also called Sample # 5) VH: QVQLQESGPGLVRPSQTLSLTCTVSGYSITSDHAWSWVRQPPGRGLEWIGFISYSGITTYNPSLKSRVTMLRDTSKNQFSLRLSSVTAADTAVYYCARSLARTTAMDYWGQGSLVTVSS VL: DIQMTQSPSSLSASVGDRVTITCRASQDISSYLNWYQQKPGKAPKLLIYYTSRLHSGVPSRFSGSGSGTDFTFTISSLQPEDIATYYCQQGNTLPYTFGQGTKVEIKR
